One data set concerns human glioblastoma cells. The note with it: ref [28]; cited from earlier work. The text has this:
TGFβ-specific blocking peptide P144 selected in this study was an analog of the essential structure for ligand recognition and binding in the extracellular domain of TGFβR3, which has high specificity and affinity to TGFβ ([36]). […] The doses of th ...

Data set [1] can be described thus: Radio-HPLC radiochemical purity after standing at room temperature (stability). Type of data set: physicochemical. The conditions noted are these: C18, room temperature, 4 h after synthesis. As for the experimental part:
Radio-HPLC and radio-iTLC assays were conducted for the quality control of product [^68Ga]Ga-DOTA-P144 and free [^68Ga] ions. American alltech1500 high-performance liquid chromatography and online radioactive detector were used. Chromatographic column: YMC-Pack Pro C18 RS (5 μm, 250 mm × 4.6 mm). Mobile phase: A) water + 0.1% formic acid; B) acetonitrile. Method: 0 min, 95% A and 5% B; 1 min, 95% A and 5% B; 10 min, 70% A and 30% B; 18 min, 70% A and 30% B; 25 min, 95% A and 5% B; flow speed, 1 mL/min. The quality control standard was that the chemical and radiochemical purities of the products were greater than 95%. Radio-iTLC analytical quantification methods/conditions were as follows. The stationary phase was iTLC glass fiber (1 cm × 8 cm instant silica gel strip), and the developing solvent was 2 mM of sodium citrate/citric acid buffer solution (pH 6.5). performed according to General Rule 1401 in Chinese Pharmacopoeia (2020 Edition), the method for the determination of radioactive drugs, the Rf value of the radioactive peak of the product to be tested was approximately 0.1–0.4, and there was a single main peak under normal conditions. If there were impurities, especially free [^68Ga] ions, the corresponding peaks should appear at the Rf value of approximately 0.6–0.8. […]

A further data set relates to PANC-1 cells. Nature of the data set: Cell uptake (internalization) assay in PANC-1 cells. Format: cell-based, human. The conditions noted are these: 200 MBq/L, 0.5-5 h incubation, FCS-free medium, γ-counter, %AD per 1 × 10^6 cells, three series. How it is done: (§1) The method process for cell uptake assay of radiolabeled drug was as follows. First, the selected cell lines were inoculated into a 6-well plate, incubated for 48 h to achieve a cell coverage rate of approximately 80%–90% (1.2–2 × 10^6 cells/well), and replaced with 1 mL of fresh culture medium without fetal calf serum (FCS). Then, a certain amount of radionuclide-labeled drug (200 MBq/L) was added to the culture well and incubated for different times (0.5–5 h). The culture medium containing the drug was removed, and the cells were washed twice with 1 mL of phosphate-buffered saline (PBS) (pH 7.4). Cells were incubated with 1 mL of glycine HCl solution (1 M, pH 2.2) at room temperature for 10 min to remove surface binding, and the cells were washed with 2 mL of ice-cold PBS (collect washing solution for detection of binding amount). After that, 1.4 mL of lysis buffer (0.3 M of NaOH, 0.2% sodium dodecyl sulfate (SDS)) was used to lyse the cells and collect this lysate. With a γ-counter, the radioactive activity in the collected lysate was measured, and the %AD value was calculated. One mio (1 × 10^6) of cells was adopted for normalization, with the result representing the internalization uptake level of the tested radiopharmaceutical by this cell line. Each experiment was repeated three times independently, with three multiple wells set at each processing time point.

The next data set has as its system PC3 cells. The experiment in a line: Cell uptake (internalization) assay in PC3 cells. Format: cell-based. The conditions noted are these: 200 MBq/L, 0.5-5 h incubation, FCS-free medium, γ-counter, three series. As for the experimental part:
as §1

A short description of data set [2]: in vivo. The conditions noted are these: nude, mouse, iv, 1 mg/kg, total radioactivity. How it is done:
(§2) Pancreatic cancer cell line PANC-1 was obtained from the ATCC, and cells were cultured in complete RPMI1640 medium supplemented with 10% fetal calf serum (Life Technologies, Carlsbad, CA, USA). One portion of the PANC-1 cells (~1 × 10^6) was injected subcutaneously below the anterior axillary of the nude mice to induce the mouse heterotopic tumor model. The tumor cells were suspended in a mixture (v/v, 1:1) of medium and Matrigel (Corning Life Sciences, Corning, NY, USA). The tumor xenografts were generally palpable within 10 days after injection. Xenograft tumor sizes of the model mice were measured every 3 days. Short and long tumor diameters, tumor volume, and body weight were measured. When the xenograft tumor grew to a volume of 150–200 mm^3, the mice were used for PET imaging study. A diagnostic tracer and drug were injected approximately 2 weeks after the establishment of the tumor model.
(§3) Peptide conjugate P144-DOTA and the radiolabeled tracer [^68Ga]Ga-P144 were both administrated through tail vein injection. The chemical dose of [^68Ga]Ga-P144 was 1 mg/kg, and the radioactive dose was approximately 3.7 MBq in 200 μL per mouse. As a competitive blocker with the same target TGFβ, the dose of DOTA-P144 was 100 mg/kg (47.3 μmol/kg, 100 times the mass dose of the radiolabeled peptide conjugate), and the administration of this unlabeled peptide conjugate was followed after 10 min by 1 mg/kg of the radiolabeled tracer [^68Ga]Ga-P144. All the mice were deprived of food and water for 1 h before drug administration. Then, the mice were anesthetized with pentobarbital sodium (45 mg/kg) and scanned with microPET. After the last scanning, the mice were anesthetized with 2% pentobarbital sodium at 65 mg/kg intraperitoneally and then executed by dislocation of their cervical vertebra, and the tissues were harvested for analysis.
(§4) The tumor-bearing mice were anesthetized with pentobarbital sodium before microPET scanning. Each mouse was intravenously injected with approximately 3.7 MBq (90–120 μCi) of [^68Ga]Ga-P144. After administration, the mice were scanned by a small animal PET system (Inveon, Siemens, Munich, Germany). The body temperature of the mice was monitored by a rectal probe and kept at 37°C by a heated air stream. The scanning time was set as follows: static PET scanning for 10 min and scanning energy window 350–650 keV at four time points (1 h, 2 h, 3 h, and 4 h) after the injection. MicroPET image reconstruction was performed using a 3D OSEM PSF algorithm with five iterations. Images were processed and analyzed using PMOD4.2 software (PMOD Technologies Ltd., Zurich, Switzerland). Regions of interest (ROIs) of the brain, heart, liver, lungs, kidney, muscle, and tumor were delineated. Radioactivity values of the ROIs per unit volume were obtained, and the percentage of injected dose per tissue weight in gram (%ID/g) values of the different organs and tissues were calculated as follows:
(§5) %ID/g=radiouptake in ROI(kBq/g)/injection dose(kBq)×100.

The test system of data set [3] is PANC-1 tumor-bearing mice. Nature of the data set: in vivo. The note with it: mouse. As for the experimental part: as §2, §3, §4, §5
The nature of data set [4]: in vivo. The note with it: nude, mouse, iv, 1 mg/kg, total radioactivity. As for the experimental part: For biodistribution assay ex vivo, the PANC-1 tumor model mice were euthanized by pentobarbital sodium at 1 h after tracer administration. The blood was harvested via cardiac puncture, and the different organs/tissues were isolated, weighed, and counted on a γ-counter for radioactivity. The amount of the injected radiotracer was measured and used to determine the total number of counts of nuclei decay per minute (CPM) by comparison with a standard of known activity. The data were background- and decay-corrected and expressed as percentages of the injection dose per tissue weight in grams (%ID/g).
The source holds these as a separate data set.

Data set [5] is described as follows: in vivo. The note with it: nude, mouse, iv, 1 mg/kg, total radioactivity. How it is done:
as §3, with “After the last scanning, the mice were anesthetized with 2% pentobarbital sodium at 65 mg/kg intraperitoneally and then executed by dislocation of their cervical vertebra, and the tissues were harvested for analysis.” left out
The tumor-bearing mice were anesthetized with pentobarbital sodium before microPET scanning. […] The body temperature of the mice was monitored by a rectal probe and kept at 37°C by a heated air stream. […] Images were processed and analyzed using PMOD4.2 software (PMOD Technologies Ltd., Zurich, Switzerland). […] Radioactivity values of the ROIs per unit volume were obtained, and the percentage of injected dose per tissue weight in gram (%ID/g) values of the different organs and tissues were calculated as follows: […]
This is another data set of the same source.

Peptide text beside a SMILES is read from it. * marks the point of attachment. DOTA = O=C(O)CN1CCN(CC(=O)O)CCN(CC(=O)*)CCN(CC(=O)O)CC1; PEG3 = NCCOCCOCCOCCC(=O)O

As to TSLDASIWAMMQNA [P144], the “growth and proliferation of human glioblastoma cells” value with human glioblastoma cells is “significantly inhibit”.
For `CC[C@H](C)[C@H](NC(=O)[C@H](CO)NC(=O)[C@H](C)NC(=O)[C@H](CC(=O)O)NC(=O)[C@H](CC(C)C)NC(=O)[C@H](CO)NC(=O)[C@@H](NC(=O)CCOCCOCCOCCNC(=O)CN1CCN(CC(=O)O)CCN(CC(=O)O)CCN(CC(=O)O)CC1)[C@@H](C)O)C(=O)N[C@@H](Cc1c[nH]c2ccccc12)C(=O)N[C@@H](C)C(=O)N[C@@H](CCSC)C(=O)N[C@@H](CCSC)C(=O)N[C@@H](CCC(N)=O)C(=O)N[C@@H](CC(N)=O)C(=O)N[C@@H](C)C(N)=O` [[^68Ga]Ga-P144, metal not drawn] ({DOTA-PEG3}-TSLDASIWAMMQNA-NH2; N-terminus and C-terminus assumed), in data set [1], the “radiochemical purity after purification and placement at room temperature for 4 h” value is listed as 98.87%. The “cell uptake ratio (internalization)” value in the data set on PANC-1 cells is “high and persistent”. Further, the “cell uptake ratio (non-specific cellular uptake)” value with PC3 cells is “very low level”. Besides, in the data set “in vivo [2]”, the tissue to tissue ratio at 1 h was 3.44 ± 1.53. The tissue to tissue ratio at 4 h in the data set “in vivo [2]” came to 3.77 ± 1.18. The tissue uptake at 1 h in the data set “in vivo [2]” (uptake in heart) worked out at 5.74 ± 1.68 %ID/g; in “in vivo [2]” (uptake in kidneys) it was 3.32 ± 0.636 %ID/g; in the data set “in vivo [2]” (uptake in liver), 4.01 ± 0.975 %ID/g; in the data set “in vivo [2]” (uptake in lung), 3.56 ± 0.739 %ID/g; in the data set “in vivo [2]” (uptake in tumors), 5.76 ± 1.21 %ID/g; in “in vivo [4]” (ex vivo radioactive biodistribution in heart) it was 4.89 ± 0.899 %ID/g. Moreover, the tissue uptake at 1 h was determined as 2.98 ± 0.854 %ID/g in the data set “in vivo [4]” (ex vivo radioactive biodistribution in kidney); 1.95 ± 0.717 %ID/g in “in vivo [4]” (ex vivo radioactive biodistribution in liver); 3.16 ± 0.429 %ID/g in “in vivo [4]” (ex vivo radioactive biodistribution in lung); 4.63 ± 1.22 %ID/g in the data set “in vivo [4]” (ex vivo radioactive biodistribution in tumors); 5.36 ± 0.937 %ID/g in “in vivo [5]”. Moreover, the tissue uptake at 4 h is 3.92 ± 0.891 %ID/g in the data set “in vivo [2]” (uptake in heart); 2.8 ± 0.281 %ID/g in “in vivo [2]” (uptake in kidneys); 2.91 ± 0.431 %ID/g in “in vivo [2]” (uptake in liver); 2.19 ± 0.206 %ID/g in the data set “in vivo [2]” (uptake in lung); 6.02 ± 1.37 %ID/g in “in vivo [2]” (uptake in tumors). Also, the tumor retention time in data set [3] is reported as > 4 h.

One may read the tissue uptake as the share of the injected amount in each gram of the tissue.

(Values after paper PMC10540840, “PET imaging with [^68Ga]-labeled TGFβ-targeting peptide in a mouse PANC-1 tumor model” (Frontiers in Oncology, 2023).)
